Source: US20030003461, “Truncation selex method” (Gilead Sciences, Inc., published 2003)

What was measured:
VEGF [1] = molecular target: T1, VEGF (Homo sapiens, UniProt P15692-4 P15692-4:27-191); test: filter; phenotype 2: somewhat affected; details: tags: recombinant human, R&D Systems; chain copies: 2
VEGF (VEGF165?) = VEGF (VEGF165?) (Homo sapiens, UniProt P15692-4 P15692-4:27-191); test: filter; phenotype 5: non-binding with or without 3' fixed sequence; details: tags: R&D Systems; chain copies: 2; label: 32P body
Chain of VEGF (VEGF165?) (P15692 other isoform, or with tags, fused parts or gaps): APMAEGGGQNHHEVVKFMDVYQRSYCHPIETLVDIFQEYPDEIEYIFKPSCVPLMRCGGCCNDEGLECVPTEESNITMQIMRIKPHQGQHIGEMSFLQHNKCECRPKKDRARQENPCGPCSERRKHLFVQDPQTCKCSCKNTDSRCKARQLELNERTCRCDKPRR

[2] = molecular target: MS2 coat protein (MS2 CP) (bacteriophage MS2, UniProt P03612 P03612:2-130, V75E;A81G); test: filter; binds better than natural MS2 site; details: chain copies: 2 (dimer, stated); hairpin
VEGF [3] = molecular target: T1, VEGF; test: filter; phenotype 4: unaffected; details: tags: recombinant human, R&D Systems; chain copies: 2
VEGF [4] = molecular target: T1, VEGF; test: filter; phenotype 3: gains significant affinity when truncated; details: tags: recombinant human, R&D Systems; chain copies: 2

T1 sequence (P15692 other isoform, or with tags, fused parts or gaps): as above

B1: VEGF hyb 15b,19 (ssRNA)
RNA: GGGAGGACGAUGCGGACAUGUAGGAAGAAUUGGAAGAUGCCGCGUCAGACGACUCGCCCGA
modifications: 2'-F pyrimidines
binding result (VEGF [1]): binds

B2: T1-5 (ssRNA)
RNA: GGGAGGGUGAAUGCCAACGAUUUUAUCGCCUAUCGUCACAGACGACUCGCCCGA
modifications: 2'-F pyrimidines
binding result (VEGF (VEGF165?)): no binding

B3: ygiI isolate 4 (ssRNA)
RNA: GGGAAAGCCCACGCCUAGGAGAGCGUUAACAACAGCAUCAGCGUUGAAGUGACGGAGGUACCGAACUGCCGCACC
binding result [2]: binds

B4: VEGF hyb 6 (ssRNA)
RNA: GGGAGGACGAUGCGGAUUUGGAUGCAUGUCAAGGCGUUUUGCCCUCAGACGACUCGCCCGA
modifications: 2'-F pyrimidines
binding result (VEGF [3]): binds

B5: T2-20 (ssRNA)
RNA: GGGAGGGGAGGAAACGGAAGAAUUGGAAAACACCCGUCAGCACAGACGACUCGCCCGA
modifications: 2'-F pyrimidines
binding result (VEGF [1]): binds

B6: VEGF hyb 1 (ssRNA)
RNA: GGGAGGACGAUGCGGAGCUAGGUGAAUGCCGAUAUUCUCUUCCGUCAGACGACUCGCCCGA
modifications: 2'-F pyrimidines
binding result (VEGF [3]): binds

B7: VEGF hyb 21b (ssRNA)
RNA: GGGAGGACGAUGCGGUACUAGGUGAAUGCCGAUAAUCUUAUCCGUCAGACGACUCGCCCGA
modifications: 2'-F pyrimidines
binding result (VEGF [4]): binds

B8: T2-17 (ssRNA)
RNA: GGGAGAGGAGAAUCAGUGAAUGCUUAUAAAUCUCGUGUCACACAGACGACUCGCCCGA
modifications: 2'-F pyrimidines
binding result (VEGF [1]): binds

B9: pheT isolate 2 (ssRNA)
RNA: GGGAAAGCCCACGCCCUUCGCUUCAGUACCGUCGAGCAGCACCAGCGUUUCGCCACCGAACUGCCGCACC
binding result [2]: binds

B10: T1-4 (ssRNA)
RNA: GGGAGGCAGACGACUCGCCCGAGGAUACACAUCGUGUGGUCAGACGACUCGCCCGA
modifications: 2'-F pyrimidines
binding result (VEGF (VEGF165?)): no binding

B11: VEGF hyb 4a (ssRNA)
RNA: GGGAGGACGAUGCGGAAACGGAACUUCUUGGAUACAUCUGCUCGUCAGACGACUCGCCCGA
modifications: 2'-F pyrimidines
binding result (VEGF [4]): binds

B12: VT30.9 (ssRNA)
RNA: GGGAGGACGAUGCGGUCAACCGGUUGAAUAUUUGGUCGCUGACCUCAGACGACUCGCCCGA
modifications: 2'-F pyrimidines
binding result (VEGF [3]): binds

B13: T1-2 (ssRNA)
RNA: GGGAGACCACCAGACGACUCGCCCGAACGCUUAUCCUCUGGUCAGACGACUCGCCCGA
modifications: 2'-F pyrimidines
binding result (VEGF (VEGF165?)): no binding

B14: T2-7 (ssRNA)
RNA: GGGAGGAAACGGAAGAAUUGGAAAACACCCGUCCAGACGACUCGCCCGA
modifications: 2'-F pyrimidines
binding result (VEGF [1]): binds

B15: VEGF hyb 3a (VT30.1) (ssRNA)
RNA: GGGAGGACGAUGCGGAACUAGUGAAUGCUUAUACGACCGUGUUGUCAGACGACUCGCCCGA
modifications: 2'-F pyrimidines
binding result (VEGF [1]): binds

B16: o356 isolate 3 (ssRNA)
RNA: GGGAAAGCCCACGCCAAUGUUCCACCAGCAGGGGAAAUGAUGUUGUUCUGGCUACCGAACUGCCGCACC
binding result [2]: binds

B17: T1-13 (ssRNA)
RNA: GGGAGCAGACGACUCGCCCGACAGACCACUCGCCCGACAGACGACUCGCCCGA
modifications: 2'-F pyrimidines
binding result (VEGF (VEGF165?)): no binding

B18: T2-23 (ssRNA)
RNA: GGGAGGGACUGAAUGAAUGUUGACGGUUACGCUUUCCCCACAGACGACUCGCCCGA
modifications: 2'-F pyrimidines
binding result (VEGF [3]): binds

B19: VEGF hyb 2a,23 (VT30.3) (ssRNA)
RNA: GGGAGGACGAUGCGGAGAAUCAGUGAAUGCUUAUAAAUCUCGUGUCAGACGACUCGCCCGA
modifications: 2'-F pyrimidines
binding result (VEGF [3]): binds

B20: VT30.3 (ssRNA)
RNA: GGGAGGACGAUGCGGAGAAUCAGUGAAUGCUUAUAAAUCUCGUGUCAGACGACUCGCCCGA
modifications: 2'-F pyrimidines
binding result (VEGF [1]): binds

B21: VEGF hyb 13b,21a (ssRNA)
RNA: GGGAGGACGAUGCGGUGUUGAUCGAGAUUUAAUCUAUUUCCACGUCAGACGACUCGCCCGA
modifications: 2'-F pyrimidines
binding result (VEGF [4]): binds

B22: T1-3 (ssRNA)
RNA: GGGAGCAGACGACUCGCCCGAGGAGGAGGGGGGCAGACGACUCGCCCGA
modifications: 2'-F pyrimidines
binding result (VEGF (VEGF165?)): no binding

B23: T1-15 (ssRNA)
RNA: GGGAGGGGGGGGGAGUGAAUGCUUAUUAGAUCUGCCGUCACAGACGACUCGCCCGA
modifications: 2'-F pyrimidines
binding result (VEGF (VEGF165?)): no binding

B24: mreD isolate 5 (ssRNA)
RNA: GGGAAAGCCCACGCCUGAUUUGCAGCAACAGCGCAAUGAGGAAAGAGAGCCAGAUUACCCACCGAACUGCCGCACC
binding result [2]: binds

B25: T1-16 (ssRNA)
RNA: GGGAGGUCUCCAGACGACUCGCCCGA
modifications: 2'-F pyrimidines
binding result (VEGF (VEGF165?)): no binding

B26: isolate 7 (ssRNA)
RNA: GGGAAAGCCCACGCCAGUAAUUACGCCAUGAACACAGGCAUAAAGAAGUACAUAUGGUACCGAACUGCCGCACC
binding result [2]: binds

B27: VEGF hyb 4b (ssRNA)
RNA: GGGAGGACGAUGCGGAGACUUUGGAAGAAUUGAAUUUGUCCGUGUCAGACGACUCGCCCGA
modifications: 2'-F pyrimidines
binding result (VEGF [1]): binds

B28: T2-18 (ssRNA)
RNA: GGGAGUGGAAAUCAGUGAAUGCUUAUAGUUUCUCGCGUCACACAGACGACUCGCCCGA
modifications: 2'-F pyrimidines
binding result (VEGF [3]): binds

B29: T1-1 (ssRNA)
RNA: GGGAGCGGACGACCUGGUGAAUGCCAAUAUACUUUUCGCGUCACAGACGACUCGCCCGA
modifications: 2'-F pyrimidines
binding result (VEGF (VEGF165?)): no binding

B30: VEGF hyb 24 (ssRNA)
RNA: GGGAGGACGAUGCGGAAGGCGACUUGUAUGUGAUUCAGUAUUGGUCAGACGACUCGCCCGA
modifications: 2'-F pyrimidines
binding result (VEGF [1]): binds

B31: T2-11 (ssRNA)
RNA: GGGAGGGACACUGGUUCCGAAGUAUUGUCUUUGUCCUCACAGCAGACGACUCGCCCGA
modifications: 2'-F pyrimidines
binding result (VEGF [1]): binds
